Numbering of substitutions follows the chain as printed. Numbers in names are those of the source.
B1: anti-CD20 human IgG1 G236R/L328R (antibody)
heavy: not shown
light: QIVLSQSPAILSASPGEKVTMTCRASSSVSYIHWFQQKPGSSPKPWIYATSNLASGVPVRFSGSGSGTSYSLTISRVEAEDAATYYCQQWTSNPPTFGGGTKLEIKRTVAAPSVFIFPPSDEQLKSGTASVVCLLNNFYPREAKVQWKVDNALQSGNSQESVTEQDSKDSTYSLSSTLTLSKADYEKHKVYACEVTHQGLSSPVTKSFNRGEC
notes: also called 2-68
B2: anti-CD20 human IgG1 L234H/L235S/G236R (antibody)
heavy: QVQLQQPGAELVKPGASVKMSCKASGYTFTSYNMHWVKQTPGRGLEWIGAIYPGNGDTSYNQKFKGKATLTADKSSSTAYMQLSSLTSEDSAVYYCARSTYYGGDWYFNVWGAGTTVTVSSASTKGPSVFPLAPSSKSTSGGTAALGCLVKDYFPEPVTVSWNSGALTSGVHTFPAVLQSSGLYSLSSVVTVPSSSLGTQTYICNVNHKPSNTKVDKKVEPKSCDKTHTCPPCPAPEHSRGPSVFLFPPKPKDTLMISRTPEVTCVVVDVSHEDPEVKFNWYVDGVEVHNAKTKPREEQYNSTYRVVSVLTVLHQDWLNGKEYKCKVSNKALPAPIEKTISKAKGQPREPQVYTLPPSRDELTKNQVSLTCLVKGFYPSDIAVEWESNGQPENNYKTTPPVLDSDGSFFLYSKLTVDKSRWQQGNVFSCSVMHEALHNHYTQKSLSLSPGK
light: B1 light
notes: also called 2-21; 1-74
B3: anti-CD20 human IgG1 L234R/L235Q/G236R (antibody)
heavy: B2 heavy with H238R, S239Q
light: B1 light
notes: also called 2-42
B4: anti-CD20 human IgG1 L234T/G236R (antibody)
heavy: not shown
light: B1 light
notes: also called 2-59; 1-159
B5: anti-CD20 human IgG1 L234Q/L235T/G236R (antibody)
heavy: B2 heavy with H238Q, S239T
light: B1 light
notes: also called 1-120
B6: anti-CD20 human IgG1 L235V/F243L/R292P/Y300L/P396L (antibody)
heavy: B2 heavy with H238L, S239V, R240G, F247L, R296P, Y304L, P400L
light: B1 light
notes: also called 2-72
B7: anti-CD20 human IgG1 L234K/L235T/G236R (antibody)
heavy: B2 heavy with H238K, S239T
light: B1 light
notes: also called 1-90; 2-25; copies: 2 + 2
B8: anti-CD20 human IgG1 L234K/L235V/G236R (antibody)
heavy: B2 heavy with H238K, S239V
light: B1 light
notes: also called 1-91; 2-26; copies: 2 + 2
B9: anti-CD20 human IgG1 L234R/L235D/G236R (antibody)
heavy: B2 heavy with H238R, S239D
light: B1 light
notes: copies: 2 + 2
B10: anti-CD20 human IgG1 L234R/L235H/G236R (antibody)
heavy: B2 heavy with H238R, S239H
light: B1 light
notes: also called 2-38; copies: 2 + 2
B11: anti-CD20 human IgG1 L234R/L235I/G236R (antibody)
heavy: B2 heavy with H238R, S239I
light: B1 light
notes: also called 2-39; copies: 2 + 2
B12: anti-CD20 human IgG1 L234R/L235K/G236R (antibody)
heavy: B2 heavy with H238R, S239K
light: B1 light
notes: also called 2-40; copies: 2 + 2
B13: anti-CD20 human IgG1 L234S/L235G/G236R (antibody)
heavy: B2 heavy with H238S, S239G
light: B1 light
notes: also called 1-140; 2-47; copies: 2 + 2
B14: anti-CD20 human IgG1 L234T/L235K/G236R (antibody)
heavy: B2 heavy with H238T, S239K
light: B1 light
notes: also called 2-58; copies: 2 + 2
B15: anti-CD20 human IgG1 L234T/L235S/G236R (antibody)
heavy: B2 heavy with H238T
light: B1 light
notes: also called 2-62; copies: 2 + 2
B16: anti-CD20 human IgG1 L234A/L235S/G236R (antibody)
heavy: not shown
light: B1 light
notes: also called 1-14; 2-4; copies: 2 + 2
B17: anti-CD20 human IgG1 L234D/L235S/G236R (antibody)
heavy: B2 heavy with H238D
light: B1 light
notes: also called 1-29; 2-10; copies: 2 + 2
B18: anti-CD20 human IgG1 L234Q/L235A/G236R (antibody)
heavy: not shown
light: B1 light
notes: also called 2-27; copies: 2 + 2
B19: anti-CD20 human IgG1 L234Q/L235D/G236R (antibody)
heavy: B2 heavy with H238Q, S239D
light: B1 light
notes: also called 2-28; copies: 2 + 2
B20: anti-CD20 human IgG1 L234Q/L235R/G236R (antibody)
heavy: B2 heavy with H238Q, S239R
light: B1 light
notes: also called 2-32; copies: 2 + 2
B21: anti-CD20 human IgG1 L234R/L235R/G236R (antibody)
heavy: B2 heavy with H238R, S239R
light: B1 light
notes: also called 2-43; copies: 2 + 2

biological target: T1, Histidine-tagged recombinant human FcγRI (CD64) (human, UniProt P12314 16-288, limits assumed); assay: SPR, His-FcγRI captured; Expt 1;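 further: SPR at 25 °C on anti-His antibody chip capturing FcγRI, Fc-variant antibodies injected at 100 µg/mL for 1 min, signal near end of injection minus buffer blank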
T1 construct: bought

Binder	Corrected response (RU)
B1	8.8 RU
B2	0.7 RU
B3	-1 RU
B4	156 RU

biological target: T1, Histidine-tagged recombinant human …; assay: SPR, His-FcγRI captured; Expt 3;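 further: biacore T200 SPR at 25 °C, Fc-variant antibodies at 100 µg/mL flowed 1 min over anti-His-captured FcγRI, signal taken just before injection end minus a buffer blank cycle; antibody analyte injected at 100 µg/mL for 1 min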
Method: Binding analysis was carried out by surface plasmon resonance at 25° C. using a Biacore® T200 instrument with Biacore® T200 control software. The sample compartment was held at 5° C. The running buffer (HBS-EP+) consisted of 0.01 M HEPES pH 7.4, containing 0.15 M NaCl, 3 mM EDTA, and 0.05% v/v Surfactant P20. Methods were run using the manufacturer's standard method wizards as described in the Biacore® T200 Instrument Handbook.
The cell was activated by treatment with EDC/NHS for 7 min. The antibody was diluted to 10 μg/mL in 10 mM sodium acetate pH 5.0 and injected for 7 min at 5 μL/min. The flow cell was deactivated by injection of 1M ethanolamine for 7 min. This process was repeated in the absence of anti-his antibody on a separate flow cell to generate a reference surface. […] Samples of purified antibodies comprising variant Fc regions (1 mg/mL in PBS) were diluted with running buffer to 100 μg/mL and were injected for 1 min at 30 μL/min and allowed to disassociate for 2 min. Between each cycle, the chip was regenerated by injection of 10 mM glycine pH 3.0 for 0.5 min at a flow rate of 30 μL/min and recharged with a fresh injection of FcγRI. At the beginning of each experiment, three blank cycles were run, with buffer alone being injected instead of test sample. The average SPR signal (relative to the reference cell) was measured in a window approximately 8 to 13 seconds before the injection of test sample (baseline) and approximately 3 to 8 seconds before the end of injection (response). The response of the third of the blank (buffer) samples was subtracted from the response of each test sample in order to allow for any dissociation of the bound FcγRI giving a corrected response for each test sample. The whole experiment was repeated three times with the test samples being analysed in different orders each time.

Binder	Corrected response (RU)
B1	65 RU
B2	5.9 RU
B5	1.4 RU
B3	7.3 RU
B6	2510 RU

biological target: T2, Histidine-tagged recombinant human FcγRI (CD64) (human, UniProt P12314 16-288); assay: SPR, culture supernatant, captured His-FcγRI;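 further: biacore T200 SPR at 25 °C, anti-His capture, supernatants of HEK293 cells expressing IgG1 Fc variants injected 1 min, reference-subtracted response read 55 s after injection start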
T2 construct: bought; also called Sino Biological Cat. No. 12056-H08H
Method: Binding analysis was carried out by surface plasmon resonance at 25° C. using a Biacore® T200 instrument with Biacore® T200 control software. The running buffer (HBS-EP+) consisted of 0.01 M HEPES pH 7.4, containing 0.15 M NaCl, 3 mM EDTA, and 0.05% v/v Surfactant P20. The sample compartment was held at 4° C. during analysis.
The cell was activated by treatment with EDC/NHS for 7 min. The antibody was diluted to 5 μg/mL in 10 mM sodium acetate pH 4.5 and injected for 7 min at 5 μL/min. The flow cell was deactivated by injection of 1M ethanolamine for 7 min. This process was repeated in the absence of anti-his antibody on a separate flow cell to generate a reference surface. […] Samples of undiluted culture supernatants from HEK293 cells expressing human IgG1 antibodies comprising variant Fc regions were injected for 1 min at 30 μL/min and allowed to disassociate for 2 min. […] Therefore, regeneration between cycles was not necessary. Responses on the test flow cell (coupled with anti-His antibody) were analysed after subtraction of responses on the control flow cell (sham-coupled). The relative binding response was measured 55 sec after the beginning of sample injection. To account for any possible drift in response due to slow dissociation of the His-tagged FcγRI, the binding response was measured relative to a baseline interpolated between report points located before sample injection and at the end of dissociation.
The whole experiment was repeated three times. Due to the relatively crude nature of the samples (variable refractive index, presence of culture media and other cellular products), some sensorgrams were unsatisfactory and were eliminated from analysis. The mean and standard deviation of binding response was then calculated for each sample.

Binder	Mean binding response
B7	15.8 RU
B8	12.8 RU
B9	11.1 RU
B10	14.3 RU
B11	10.7 RU
B12	19.2 RU
B13	11.2 RU
B14	6.7 RU
B15	25.4 RU
B16	32.1 RU
B17	26.3 RU
B18	13.4 RU
B19	18.9 RU
B20	20.1 RU
B21	17.2 RU
